From US8802826B2, “Anti-clusterin antibodies and antigen binding fragments and their use to reduce tumor volume” (Alethia Biotherapeutics Inc., priority 2009, dated 2014) come the findings set out here.

Test [1] concerns PC-3 prostate cancer cells. In words: PC-3 prostate tumor xenograft. The note with it: single injection 10 mg/kg i.p. on day 5. Type of test: in vivo, SCID mice. How it is done: PC-3 prostate cancer cells (2×10^6) were implanted s.c. into SCID mice and allowed to grow until the tumor sizes were approximately 100 mm^3. Tumors were measured bi-weekly with a digital caliper and tumor volumes were calculated as L×W×H. Each group contained 8 animals that were randomized prior to the beginning off the treatments. The results were expressed as mm^3±SEM.
A second prostate cancer model study was conducted in a different tumor model by implanting PC-3 prostate cancer cells. PC-3 cells are also hormone-insensitive but are documented as being slightly more invasive than the DU145 cells. As was described above, the cells were implanted sub-cutaneously in SCID mice and treatments were initiated when the tumors reached a volume of approximately 100 mm^3 (designated day 1). The h16B5 injections were administered i.p. on day 1 at 5 mg/kg and continued twice per week thereafter whereas a single TxT injection at 10 mg/kg was administered i.p. on day 5.

For test [2], the system named is EMT6 cells. The test can be described thus: wound healing (scratch) migration assay. Type of test: cell-based, mouse. The note with it: 37 C for 15 h. How it is done:
FIG. 4. h16B5 blocks the migration of cancer cell lines.
To test the activity of anti-clusterin antibodies against cancer cell migration, a standard wound healing, or scratch assay, was used. In this assay, EMT6 cells, a mouse mammary carcinoma cell line, was plated at high density and subjected to wounding by the creation of a scratch in the cell layer. At time 0, a wide denuded area is evident that quickly fills up after incubation of the cells at 37 C for 15 h (see upper left-hand panels in FIG. 4).

The target of test [3] is T1, human clusterin (recombinant monomeric clusterin) (Homo sapiens, UniProt P10909).
T1 construct: Recombinant monomeric clusterin was immobilized on a CM3 chip with normal amine coupling method
T1 sequence (P10909 23-449): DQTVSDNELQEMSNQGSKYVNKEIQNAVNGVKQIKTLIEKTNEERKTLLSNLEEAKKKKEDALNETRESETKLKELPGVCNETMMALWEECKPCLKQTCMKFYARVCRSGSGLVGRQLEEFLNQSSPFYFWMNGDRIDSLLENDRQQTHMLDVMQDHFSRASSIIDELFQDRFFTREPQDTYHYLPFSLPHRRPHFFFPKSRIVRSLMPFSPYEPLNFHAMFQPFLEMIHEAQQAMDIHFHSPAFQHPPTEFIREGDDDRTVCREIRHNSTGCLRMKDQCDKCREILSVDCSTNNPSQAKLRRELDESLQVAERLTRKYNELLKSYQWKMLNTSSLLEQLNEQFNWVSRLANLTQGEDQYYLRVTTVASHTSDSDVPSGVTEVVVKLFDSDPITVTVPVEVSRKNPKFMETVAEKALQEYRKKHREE
The test can be described thus: BIAcore kinetic analysis of antibody binding to immobilized clusterin. The note with it: for KD of the interaction with immobilized human clusterin: stated in words. How it is done: The purpose of these investigations is to determine the kinetics parameters of anti-clusterin antibodies. In particular, to determine whether the humanization of the 16B5 and 21B12 anti-clusterin monoclonal antibody affects the kinetics parameters of its binding to human clusterin. To this end, a kinetic analysis method was developed using the BIAcore 3000. Human clusterin was immobilized on a sensor chip. Full length antibodies or Fab fragments were injected and allowed to interact with the immobilized clusterin. This example described the exemplary antibody 16B5 but the 21B12 exemplary antibody was prepared and tested in a similar manner.
HBST (10 mM Hepes pH 7.4, 135 mM NaCl, 3.4 mM EDTA, 0.005% Tween 20) was used as running buffer for all BIAcore experiments. Recombinant monomeric clusterin was immobilized on a CM3 chip with normal amine coupling method at a flow of 5 μl/min. Surface was activated with 35 μl of a mixture of 50 mM NHS/0.2M EDC. Clusterin in 10 mM Na-acetate pH 4.5 was injected until a desired amount was captured (below 60RU). Unreacted esters were deactivated with 35 μL1 of 1M ethanolamine hydrochloride-NaOH pH8.5. A control surface was prepared by injecting NHS/EDC and ethanolamine in the same manner.
Kinetics analysis was conducted at a flow of 50 μl/min. Full length antibodies (mouse or humanized) or Fab were diluted in HBST. Concentration range was from 1.953-31.25 nM for the full length antibodies and 15.625-250 nM for the Fab. Each concentration was injected over the clusterin and a control surface for 5 min followed with a 5 min dissociation wash. The clusterin surface was regenerated between each antibody injection with 50 μl of 20 mM HCl.
Background: In SPR one partner is held on a chip, and binding of the other changes the refractive index at the surface.

Regarding `CC(=O)O[C@@]12CO[C@@H]1C[C@H](O)[C@@]1(C)C(=O)[C@H](O)C3=C(C)[C@@H](OC(=O)[C@H](O)[C@@H](NC(=O)OC(C)(C)C)c4ccccc4)C[C@@](O)([C@@H](OC(=O)c4ccccc4)[C@H]21)C3(C)C` [TxT, taxotere, reference compound], in test [1], the “time after injection at which tumors appeared to recover from treatment” value is on record as “approximately 18 days”.

B1: mouse 16B5: parent mouse anti-clusterin monoclonal antibody, VL SEQ ID NO.:25, VH SEQ ID NO.:29 (antibody, V domains shown)
VH: EVQLQQSGAELVKPGASVRLSCTTSGFNIKDIYMHWVKQRPEQGLEWIGRIDPAYGNTKYDPKFQGKATITADTSSNTAYLQLSSLTSEDTAVYYCARRYDTAMDYWGQGTSVTVSS
VL: DIVMSQSPSSLAVSAGEKVTMSCKSSQSLLNSRTRKNYLAWYQQKPGQSPKLLIYWASTRESGVPDRFTGSGSGTDFTLTISSVQAEDLAVYYCKQSYNLWTFGGGTKLEFK
modifications: murine 16B5 VH; murine 16B5 VL
In the case of B1, the “migration of cells into the denuded area” value in test [2] is listed as “reduced number of cells in the denuded area”. Also, the “KD of the interaction with immobilized human clusterin” value in test [3] is “low nM range”.

B2: HH16B5 Fab: Fab fragment of humanized 16B5 prepared by papain digestion (antibody, V domains shown)
VH: QVQLVQSGAEVKKPGATVKISCKVSGFNIKDIYMHWVQQAPGKGLEWMGRIDPAYGNTKYDPKFQGRVTITADTSTDTAYMELSSLRSEDTAVYYCARRYDTAMDYWGQGTLVTVSS
VL: DIVMTQSPDSLAVSLGERATINCKSSQSLLNSRTRKNYLAWYQQKPGQPPKLLIYWASTRESGVPDRFSGSGSGTDFTLTISSLQAEDVAVYYCKQSYNLWTFGQGTKLEIK
As to B2, the “kinetics parameters compared with the parent mouse antibody” value in test [3] (full length vs full length, Fab vs Fab) is recorded as “slightly better”.

B3: mouse 21B12: parent mouse anti-clusterin monoclonal antibody, VL SEQ ID NO.:33, VH SEQ ID NO.:37 (antibody, V domains shown)
VH: QIQLVQSGPELKKPGETVKISCKASGYTFTNYGMHWVKQAPGKGLKWMGWINTYTGEPTYADDFKGRFAFSLETSASTAYLQINNLKNEDTATYFCARDGFLYFFDYWGQGTTLTVSS
VL: DIVMSQSPSSLAVSVGEKVTMSCKSSQSLLYSSNQKNYLAWYQQRPGQSPKLLIYWASTRESGVPDRFTGSGSGTDFTLTISSVKAEDLAVYYCQQYYIYPRTFGGGTKLEIK
modifications: murine 21B12 VH; murine 21B12 VL
In the case of B3, the “KD of the interaction with immobilized human clusterin” value in test [3] was “low nM range”.
